Laboratory results published in patent publication US20140314747A1, “PREDICTING RESPONSE TO EGFR INHIBITORS” (Genentech, Inc., priority 2013, published 2014).

System: mesenchyme free lung explants (lung epithelium in Matrigel)
Test: mesenchyme-free lung explant culture, growth and branching
Type: cell-based, mouse
Conditions: both LKB1 wt/wt and LKB1 MG/MG, presence and absence of NMPP1
Description: Pancreas and individual lobes of the lungs were dissected from embryos harvested from timed pregnancy setups. Embryonic explants were cultured on 12 mm Transwell® with 0.4 μm polyester membrane insert (Corning, Tewsbury, Mass.) at the air-liquid interface in DME media with 10% fetal calf serum, glutamine and penicillin-streptomycin. For longer-term cultures (>3 days), media was changed daily.
For mesenchyme-free cultures, lungs were dissected and incubated in Collagenase/Dispase (1 mg/ml for each) for 10-15 minutes at room temperature. Epithelial tissue was removed by mechanical dissection, transferred to the Transwell® plates, and covered with 5-10 μl of 1:1 Matrigel:DME. After Matrigel was solidified, 400 μl media (DME/10% FCS/glutamine/pen-strep+200 ng/ml FGF7 (Life Technologies, Carlsbad, Calif.), FGF1 (Life Technologies), or EGF (Life Technologies)) was added to top and bottom wells. Erlotinib (Tarceva®, 1 μM hydrochloride salt; OSI Pharmaceuticals) or DMSO was added as indicated.
Embryonic explants were fixed in 4% paraformaldehyde, permeabilized in PBS with 2% BSA, 0.1% saponin or 0.1% Triton-X100. After washing, tissues were stained with anti-E-cadherin (Santa Cruz). […]
Homozygous germline mutations in LKB1 in mice are early embryonic lethal. […] During this time, the response of these tissues to growth factors was assessed.

B1: FGF-7: fibroblast growth factor FGF-7 (Life Technologies) (protein, UniProt P21781 32-194, looked up)
Fibroblast growth factor 7: CNDMTPEQMATNVNCSSPERHTRSYDYMEGGDIRVRRLFCRTQWYLRIDKRGKVKGTQEMKNNYNIMEIRTVAVGIVAIKGVESEFYLAMNKEGKLYAKKECNEDCNFKELILENHYNTYASAKWTHNGGEMFVALNQKGIPVRGKKTKKEQKTAHFLPMAIT
- growth of mesenchyme free lung cultures: robust growth
